Test results taken from patent publication US20080300206.

Target: recombinant wild-type human alpha-synuclein

B1: G protein-coupled receptor kinase 6 (GRK6) (protein)
chain: MELENIVANTVLLKAREGGGGNRKGKSKKWRQMLQFPHISQCEELRLSLERDYHSLCERQPIGRLLFREFCATRPELSRCVAFLDGVAEYEVTPDDKRKACGRQLTQNFLSHTGPDLIPEVPRQLVTNCTQRLEQGPCKDLFQELTRLTHEYLSVAPFADYLDSIYFNRFLQWKWLERQPVTKNTFRQYRVLGKGGFGEVCACQVRATGKMYACKKLEKKRIKKRKGEAMALNEKQILEKVNSRFVVSLAYAYETKDALCLVLTLMNGGDLKFHIYHMGQAGFPEARAVFYAAEICCGLEDLHRERIVYRDLKPENILLDDHGHIRISDLGLAVHVPEGQTIKGRVGTVGYMAPEVVKNERYTFSPDWWALGCLLYEMIAGQSPFQQRKKKIKREEVERLVKEVPEEYSERFSPQARSLCSQLLCKDPAERLGCRGGSAREVKEHPLFKKLNFKRLGAGMLEPPFKPDPQAIYCKDVLDIEQFSTVKGVELEPTDQDFYQKFATGSVPIPWQNEMVETECFQELNVFGLDGSVPPDLDWKGQPPAPPKKGLLQRLFSRQDCCGNCSDSEEELPTRL
  S129 phosphorylation in vitro, normalised by activity units: The most prominent result came from GRK6
  S129 phosphorylation, immunoblot (11A5), kinase:AS 1:200 molar: Prominent signals came from GRK6, CKI, CKII and PLK2
  S129 phosphorylation, immunoblot (11A5), rank of signal: CKI>GRK6>PLK2>GRK4>GRK5>GRK2
  in vitro kinase reaction, phosphorylation of alpha-synuclein at serine 129: capable of phosphorylating alpha-synuclein specifically at serine 129 and did not phosphorylate serine 87 in vitro
  phospho ser-129 level in vitro, normalised for molarity: roughly equivalent levels of phospho ser-129 between CKI, GRK6 and PLK2

B2: CDC7 cell division cycle 7-like 1 (CDC7L1) (protein)
chain: MEASLGIQMDEPMAFSPQRDRFQAEGSLKKNEQNFKLAGVKKDIEKLYEAVPQLSNVFKIEDKIGEGTFSSVYLATAQLQVGPEEKIALKHLIPTSHPIRIAAELQCLTVAGGQDNVMGVKYCFRKNDHVVIAMPYLEHESFLDILNSLSFQEVREYMLNLFKALKRIHQFGIVHRDVKPSNFLYNRRLKKYALVDFGLAQGTHDTKIELLKFVQSEAQQERCSQNKSHIITGNKIPLSGPVPKELDQQSTTKASVKRPYTNAQIQIKQGKDGKEGSVGLSVQRSVFGERNFNIHSSISHESPAVKLMKQSKTVDVLSRKLATKKKAISTKVMNSAVMRKTASSCPASLTCDCYATDKVCSICLSRRQQVAPRAGTPGFRAPEVLTKCPNQTTAIDMWSAGVIFLSLLSGRYPFYKASDDLTALAQIMTIRGSRETIQAAKTFGKSILCSKEVPAQDLRKLCERLRGMDSSTPKLTSDIQGHASHQPAISEKTDHKASCLVQTPPGQYSGNSFKKGDSNSCEHCFDEYNTNLEGWNEVPDEAYDLLDKLLDLNPASRITAEEALLHPFFKDMSL
  in vitro kinase reaction, phosphorylation of alpha-synuclein: shown to be incapable of directly phosphorylating alpha-synuclein

B3: PLK3 (protein)
chain: MEPAAGFLSPRPFQRAAAAPAPPAGPGPPPSALRGPELEMLAGLPTSDPGRLITDPRSGRTYLKGRLLGKGGFARCYEATDTETGSAYAVKVIPQSRVAKPHQREKILNEIELHRDLQHRHIVRFSHHFEDADNIYIFLELCSRKSLAHIWKARHTLLEPEVRYYLRQILSGLKYLHQRGILHRDLKLGNFFITENMELKVGDFGLAARLEPPEQRKKTICGTPNYVAPEVLLRQGHGPEADVWSLGCVMYTLLCGSPPFETADLKETYRCIKQVHYTLPASLSLPARQLLAAILRASPRDRPSIDQILRHDFFTKGYTPDRLPISSCVTVPDLTPPNPARSLFAKVTKSLFGRKKKSKNHAQERDEVSGLVSGLMRTSVGHQDARPEAPAASGPAPVSLVETAPEDSSPRGTLASSGDGFEEGLTVATVVESALCALRNCIAFMPPAEQNPAPLAQPEPLVWVSKWVDYSNKFGFGYQLSSRRVAVLFNDGTHMALSANRKTVHYNPTSTKHFSFSVGAVPRALQPQLGILRYFASYMEQHLMKGGDLPSVEEVEVPAPPLLLQWVKTDQALLMLFSDGTVQVNFYGDHTKLILSGWEPLLVTFVARNRSACTYLASHLRQLGCSPDLRQRLRYALRLLRDRSPA
  Fold Change in Percent Synuclein Phosphorylation, HEK-293 overexpression: 39.6 fold
  Proportion of total synuclein that is phoshorylated at ser-129, HEK-293 overexpression, ELISA: 79.2%
  in vitro biochemical assay, phosphorylation of synuclein: PLK2 and PLK3 having extremely robust phosphorylation of synuclein

B4: GRK2 (protein)
chain: MADLEAVLADVSYLMAMEKSKATPAARASKKILLPEPSIRSVMQKYLEDRGEVTFEKIFSQKLGYLLFRDFCLNHLEEARPLVEFYEEIKKYEKLETEEERVARSREIFDSYIMKELLACSHPFSKSATEHVQGHLGKKQVPPDLFQPYIEEICQNLRGDVFQKFIESDKFTRFCQWKNVELNIHLTMNDFSVHRIIGRGGFGEVYGCRKADTGKMYAMKCLDKKRIKMKQGETLALNERIMLSLVSTGDCPFIVCMSYAFHTPDKLSFILDLMNGGDLHYHLSQHGVFSEADMRFYAAEIILGLEHMHNRFVVYRDLKPANILLDEHGHVRISDLGLACDFSKKKPHASVGTHGYMAPEVLQKGVAYDSSADWFSLGCMLFKLLRGHSPFRQHKTKDKHEIDRMTLTMAVELPDSFSPELRSLLEGLLQRDVNRRLGCLGRGAQEVKESPFFRSLDWQMVFLQKYPPPLIPPRGEVNAADAFDIGSFDEEDTKGIKLLDSDQELYRNFPLTISERWQQEVAETVFDTINAETDRLEARKKAKNKQLGHEEDYALGKDCIMHGYMSKMGNPFLTQWQRRYFYLFPNRLEWRGEGEAPQSLLTMEEIQSVEETQIKERKCLLLKIRGGKQFILQCDSDPELVQWKKELRDAYREAQQLVQRVPKMKNKPRSPVVELSKVPLVQRGSANGL
  S129 phosphorylation, immunoblot (11A5), rank of signal: CKI>GRK6>PLK2>GRK4>GRK5>GRK2
  in vitro kinase reaction, phosphorylation of alpha-synuclein at serine 129: capable of phosphorylating alpha-synuclein specifically at serine 129 and did not phosphorylate serine 87 in vitro

B5: MET (protein)
chain: KKRKQIKDLGSELVRYDARVHTPHLDRLVSARSVSPTTEMVSNESVDYRATFPEDQFPNSSQNGSCRQVQYPLTDMSPILTSGDSDISSPLLQNTVHIDLSALNPELVQAVQHVVIGPSSLIVHFNEVIGRGHFGCVYHGTLLDNDGKKIHCAVKSLNRITDIGEVSQFLTEGIIMKDFSHPNVLSLLGICLRSEGSPLVVLPYMKHGDLRNFIRNETHNPTVKDLIGFGLQVAKGMKYLASKKFVHRDLAARNCMLDEKFTVKVADFGLARDMYDKEYYSVHNKTGAKLPVKWMALESLQTQKFTTKSDVWSFGVLLWELMTRGAPPYPDVNTFDITVYLLQGRRLLQPEYCPDPLYEVMLKCWHPKAEMRPSFSELVSRISAIFSTFIGEHYVHVNATYVNVKCVAPYPSLLSSEDNADDEVDTRPASFWETS
  in vitro kinase reaction, phosphorylation of alpha-synuclein: shown to be incapable of directly phosphorylating alpha-synuclein

B6: PLK4 (protein)
chain: MATCIGEKIEDFKVGNLLGKGSFAGVYRAESIHTGLEVAIKMIDKKAMYKAGMVQRVQNEVKIHCQLKHPSILELYNYFEDSNYVYLVLEMCHNGEMNRYLKNRVKPFSENEARHFMHQIITGMLYLHSHGILHRDLTLSNLLLTRNMNIKIADFGLATQLKMPHEKHYTLCGTPNYISPEIATRSAHGLESDVWSLGCMFYTLLIGRPPFDTDTVKNTLNKVVLADYEMPSFLSIEAKDLIHQLLRRNPADRLSLSSVLDHPFMSRNSSTKSKDLGTVEDSIDSGHATISTAITASSSTSISGSLFDKRRLLIGQPLPNKMTVFPKNKSSTDFSSSGDGNSFYTQWGNQETSNSGRGRVIQDAEERPHSRYLRRAYSSDRSGTSNSQSQAKTYTMERCHSAEMLSVSKRSGGGENEERYSPTDNNANIFNFFKEKTSSSSGSFERPDNNQALSNHLCPGKTPFPFADPTPQTETVQQWFGNLQINAHLRKTTEYDSISPNRDFQGHPDLQKDTSKNAWTDTKVKKNSDASDNAHSVKQQNTMKYMTALHSKPEIIQQECVFGSDPLSEQSKTRGMEPPWGYQNRTLRSITSPLVAHRLKPIRQKTKKAVVSILDSEEVCVELVKEYASQEYVKEVLQISSDGNTITIYYPNGGRGFPLADRPPSPTDNISRYSFDNLPEKYWRKYQYASRFVQLVRSKSPKITYFTRYAKCILMENSPGADFEVWFYDGVKIHKTEDFIQVIEKTGKSYTLKSESEVNSLKEEIKMYMDHANEGHRICLALESIISEEERKTRSAPFFPIIIGRKPGSTSSPKALSPPPSVDSNYPTRERASFNRMVMHSAASPTQAPILNPSMVTNEGLGLTTTASGTDISSNSLKDCLPKSAQLLKSVFVKNVGWATQLTSGAVWVQFNDGSQLVVQAGVSSISYTSPNGQTTRYGENEKLPDYIKQKLQCLSSILLMFSNPTPNFH
  Fold Change in Percent Synuclein Phosphorylation, HEK-293 overexpression: 1 fold
  Proportion of total synuclein that is phoshorylated at ser-129, HEK-293 overexpression, ELISA: 1.9%
  in vitro biochemical assay, phosphorylation of synuclein: PLK4 exhibiting no ability to phosphorylate synuclein

B7: GRK7 (protein)
chain: MVDMGALDNLIANTAYLQARKPSDCDSKELQRRRRSLALPGLQGCAELRQKLSLNFHSLCEQQPIGRRLFRDFLATVPTFRKAATFLEDVQNWELAEEGPTKDSALQGLVATCASAPAPGNPQPFLSQAVATKCQAATTEEERVAAVTLAKAEAMAFLQEQPFKDFVTSAFYDKFLQWKLFEMQPVSDKYFTEFRVLGKGGFGEVCAVQVKNTGKMYACKKLDKKRLKKKGGEKMALLEKEILEKVSSPFIVSLAYAFESKTHLCLVMSLMNGGDLKFHIYNVGTRGLDMSRVIFYSAQIACGMLHLHELGIVYRDMKPENVLLDDLGNCRLSDLGLAVEMKGGKPITQRAGTNGYMAPEILMEKVSYSYPVDWFAMGCSIYEMVAGRTPFKDYKEKVSKEDLKQRTLQDEVKFQHDNFTEEAKDICRLFLAKKPEQRLGSREKSDDPRKHHFFKTINFPRLEAGLIEPPFVPDPSVVYAKDIAEIDDFSEVRGVEFDDKDKQFFKNFATGAVPIAWQEEIIETGLFEELNDPNRPTGCEEGNSSKSGVCLLL
  S129 phosphorylation, immunoblot (11A5): Prominent signals came from all GRKs except for GRK7
  in vitro kinase reaction, phosphorylation of alpha-synuclein at serine 129: capable of phosphorylating alpha-synuclein specifically at serine 129 and did not phosphorylate serine 87 in vitro
  phosphorylation of AS in vitro: GRK 7 was not able to phosphorylate at appreciable levels

B8: GRK4 (protein)
chain: MELENIVANSLLLKARQGGYGKKSGRSKKWKEILTLPPVSQCSELRHSIEKDYSSLCDKQPIGRRLFRQFCDTKPTLKRHIEFLDAVAEYEVADDEDRSDCGLSILDRFFNDKLAAPLPEIPPDVVTECRLGLKEENPSKKAFEECTRVAHNYLRGEPFEEYQESSYFSQFLQWKWLERQPVTKNTFRHYRVLGKGGFGEVCACQVRATGKMYACKKLQKKRIKKRKGEAMALNEKRILEKVQSRFVVSLAYAYETKDALCLVLTIMNGGDLKFHIYNLGNPGFDEQRAVFYAAELCCGLEDLQRERIVYRDLKPENILLDDRGHIRISDLGLATEIPEGQRVRGRVGTVGYMAPEVVNNEKYTFSPDWWGLGCLIYEMIQGHSPFKKYKEKVKWEEVDQRIKNDTEEYSEKFSEDAKSICRMLLTKNPSKRLGCRGEGAAGVKQHPVFKDINFRRLEANMLEPPFCPDPHAVYCKDVLDIEQFSVVKGIYLDTADEDFYARFATGCVSIPWQNEMIESGCFKDINKSESEEALPLDLDKNIHTPVSRPNRGFFYRLFRRGGCLTMVPSEKEVEPKQC
  S129 phosphorylation, immunoblot (11A5), rank of signal: CKI>GRK6>PLK2>GRK4>GRK5>GRK2
